Measured values published in paper PMC8626583, “Collagen’s primary structure determines collagen:HSP47 complex stoichiometry” (The Journal of Biological Chemistry, 2021).

Molecular target: collagen model peptide Ac-(PPG)2PTGPRG(PPG)2-NH2
Test: crystal structure; HSP47 H273N/H274N with Ac-(PPG)2PTGPRG(PPG)2-NH2, space group P2_(1); crystallization conditions not told

**Q.** “HSP47 double-mutant H273N/H274N (natural protein)” was tested. Which stoichiometry N (HSP47 per collagen triple helix) did it give?
**A.** 2
